Data published in patent CN110981959A (SHENZHEN PREGENE BIOPHARMACEUTICAL CO LTD, dated 2020).
Substitutions are numbered along the chain they refer to.

B1: CD47单域抗体 SEQ ID NO: 10 (VHH)
VHH: GVKLVESGGGLVQPGGSLTLSCVASGFDFNSAHMRWYRQGPGKEREMVASISTTGGVTIYEDSVKGRFTISRDNADNTAYLRMNSLKPEDTAVYYCRAYGFGIDYWGQGTQVTVSS
notes: His-tagged sdAb from pSJF2 in E. coli (Ni purification, anti-His detection); also called CD47纳米抗体
B2: CD47单域抗体 SEQ ID NO: 9 (VHH)
VHH: AVKLVESGGGLVQPGGSLRLSCAASGFTVSNNNLRWYRQAPGKERELVAMITSAGNTNYADAVKGRSTISRDNAKNTLYLEMYRLKPEDTAVYYCWGAAHWGRGTQVTVSS
notes: as for B1
B3: CD47单域抗体 SEQ ID NO: 7 (VHH)
VHH: QVKLEESGGGLVQPGESLRLSCVASGFTFSDAHMRWYRQAPGKEREMVASISTTGSITIYADSVKGRFTISRDNDEKTVYLRMNSLKPEDTAAYYCRAYGFQIDSWGQGTQVTVSS
notes: as for B1
B4: CD47单域抗体 SEQ ID NO: 3 (VHH)
VHH: HVQLEESGGGLVQPGGSLRLSCKASGLTFASYSMRWYRQAPGQERELVARLSSSGVPIEYVDSVKGRFTASRDDAKSTLYLQMNSLKPEDTAMYYCWIANYWGQGTQVTVSS
notes: as for B1
B5: CD47单域抗体 SEQ ID NO: 6 (VHH)
VHH: B4 VHH with H1Q, Q3K, K23A, A30S, S52T, V56E, V61A, D74N, L79V
notes: as for B1
B6: CD47单域抗体 SEQ ID NO: 2 (VHH)
VHH: QVKLEESGGGLVQPGESLRLSCVASGFAFSSALMRWYRQAPGKERELVASITTAGGITGYADSVKGRFTISRDNAENTLYLQMNSLKPEDTAVYYCRAYGFQLDNWGQGTQVTVSS
notes: as for B1
B7: CD47单域抗体 SEQ ID NO: 5 (VHH)
VHH: B6 VHH with Q1G, K3Q, E5V, I51V, A54T, Q82R, Q102G, N105S
notes: as for B1
B8: CD47单域抗体 SEQ ID NO: 1 (VHH)
VHH: DVKLVESGGGLVQPGGSLRLSCAASGFTVSSYSMRWYRQVPGKERELIARITSTGQPIEYGESVKGRFTISRDNAKNTLYLEMNALKPEDTAVYYCWGAGYWGQGTQVTVSS
notes: Expressed from pSJF2 in E. coli, purified on Ni column and detected with anti-His antibody, so it carried a His tag; also called CD47纳米抗体
B9: CD47单域抗体 SEQ ID NO: 8 (VHH)
VHH: B8 VHH with K3Q, V5E, V40A, I48V, Q56E, G61V, K76L, Y80N, A85D
notes: as for B1
B10: CD47单域抗体 SEQ ID NO: 4 (VHH)
VHH: B8 VHH with K3Q, L11S, R19T, S31N, V40A, Q56V, G61A, E62D, A85G, G100A
notes: as for B1

These binders were tested against CD47抗原 (北京义翘神州, 货号12283-H08H) (UniProt Q08722) (assay: ELISA of induced culture supernatants on CD47 antigen (clone screening)).
Binder B1 has an OD值 over negative control (fold) greater than 5 fold. In the case of B2, the OD值 over negative control (fold) is reported as greater than 5 fold. B3 showed an OD值 over negative control (fold) greater than 5 fold. B4 showed an OD值 over negative control (fold) greater than 5 fold. With B5 the OD值 over negative control (fold) was greater than 5 fold. In the case of B6, the OD值 over negative control (fold) is reported as greater than 5 fold. For B7, the OD值 over negative control (fold) was greater than 5 fold. B8 was tested, and the OD值 over negative control (fold) was greater than 5 fold. B9 gave an OD值 over negative control (fold) greater than 5 fold. B10 showed an OD值 over negative control (fold) greater than 5 fold.

These binders were tested against CD47 on HL-60 cells (细胞膜表面表达的CD47抗原) (UniProt Q08722) (assay: flow cytometry, 20 μg/ml nanobody on HL-60 cells, anti-His staining).
B1 showed a 结合率 greater than 99%. In the case of B2, the 结合率 is reported as greater than 99%. B3 gave a 结合率 greater than 99%. With B4 the 结合率 was greater than 99%. Work on B5 yielded a 结合率 greater than 99%. Work on B6 yielded a 结合率 greater than 99%. Work on B7 yielded a 结合率 greater than 99%. For B8, the 结合率 was greater than 99%. B9 was tested, and the 结合率 was greater than 99%. Binder B10 has a 结合率 greater than 99%.

Each binder was assayed against Human CD47/Biotinylated (human, UniProt Q08722 19-139, limits assumed, biotinylated (site not stated)) (assay: BLI-type kinetics, biotinylated human CD47 captured on SA probes, antibody at 73.5-588.2 nM).
Human CD47/Biotinylated, sequence (Q08722 19-139 limits assumed): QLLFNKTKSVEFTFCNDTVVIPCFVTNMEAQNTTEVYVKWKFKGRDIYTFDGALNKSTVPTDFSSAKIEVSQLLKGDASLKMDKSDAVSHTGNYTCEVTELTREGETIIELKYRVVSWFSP
Binder B1 has a Kd of less than 1 nM. In the case of B2, the Kd is reported as less than 1 nM. For B3, the Kd was less than 1 nM. For B4, the Kd was less than 1 nM. Work on B5 yielded a Kd of less than 1 nM. For B6, the Kd was less than 1 nM. Binder B7 has a Kd of less than 1 nM. Binder B8 has a Kd of less than 1 nM. For B9, the Kd was less than 1 nM. Work on B10 yielded a Kd of less than 1 nM.
